Assay results from PMC10746679.

Assays:
Full-length fibronectin = Full-length fibronectin (UniProt P02751); test: solid-phase binding assay; settings: FN-FL 25 μg/ml coated on plate, read off a plot
[1] = target: 70-kDa N-terminal FN fragment (FN70); test: solid-phase binding assay; settings: FN70 25 μg/ml coated on plate, read off a plot
[2] = [HSP90α] 2.5 µM (read from x axis), parent: est. 1.4
[3] = [HSP90α] about 0.31 µM (read from x axis), parent: est. 1.1
[4] = [HSP90α] about 0.63 µM (read from x axis), parent: est. 1.3
[5] = [HSP90α] about 1.25 µM (read from x axis), parent: est. 1.4

Sequence of Full-length fibronectin (P02751 32-2477): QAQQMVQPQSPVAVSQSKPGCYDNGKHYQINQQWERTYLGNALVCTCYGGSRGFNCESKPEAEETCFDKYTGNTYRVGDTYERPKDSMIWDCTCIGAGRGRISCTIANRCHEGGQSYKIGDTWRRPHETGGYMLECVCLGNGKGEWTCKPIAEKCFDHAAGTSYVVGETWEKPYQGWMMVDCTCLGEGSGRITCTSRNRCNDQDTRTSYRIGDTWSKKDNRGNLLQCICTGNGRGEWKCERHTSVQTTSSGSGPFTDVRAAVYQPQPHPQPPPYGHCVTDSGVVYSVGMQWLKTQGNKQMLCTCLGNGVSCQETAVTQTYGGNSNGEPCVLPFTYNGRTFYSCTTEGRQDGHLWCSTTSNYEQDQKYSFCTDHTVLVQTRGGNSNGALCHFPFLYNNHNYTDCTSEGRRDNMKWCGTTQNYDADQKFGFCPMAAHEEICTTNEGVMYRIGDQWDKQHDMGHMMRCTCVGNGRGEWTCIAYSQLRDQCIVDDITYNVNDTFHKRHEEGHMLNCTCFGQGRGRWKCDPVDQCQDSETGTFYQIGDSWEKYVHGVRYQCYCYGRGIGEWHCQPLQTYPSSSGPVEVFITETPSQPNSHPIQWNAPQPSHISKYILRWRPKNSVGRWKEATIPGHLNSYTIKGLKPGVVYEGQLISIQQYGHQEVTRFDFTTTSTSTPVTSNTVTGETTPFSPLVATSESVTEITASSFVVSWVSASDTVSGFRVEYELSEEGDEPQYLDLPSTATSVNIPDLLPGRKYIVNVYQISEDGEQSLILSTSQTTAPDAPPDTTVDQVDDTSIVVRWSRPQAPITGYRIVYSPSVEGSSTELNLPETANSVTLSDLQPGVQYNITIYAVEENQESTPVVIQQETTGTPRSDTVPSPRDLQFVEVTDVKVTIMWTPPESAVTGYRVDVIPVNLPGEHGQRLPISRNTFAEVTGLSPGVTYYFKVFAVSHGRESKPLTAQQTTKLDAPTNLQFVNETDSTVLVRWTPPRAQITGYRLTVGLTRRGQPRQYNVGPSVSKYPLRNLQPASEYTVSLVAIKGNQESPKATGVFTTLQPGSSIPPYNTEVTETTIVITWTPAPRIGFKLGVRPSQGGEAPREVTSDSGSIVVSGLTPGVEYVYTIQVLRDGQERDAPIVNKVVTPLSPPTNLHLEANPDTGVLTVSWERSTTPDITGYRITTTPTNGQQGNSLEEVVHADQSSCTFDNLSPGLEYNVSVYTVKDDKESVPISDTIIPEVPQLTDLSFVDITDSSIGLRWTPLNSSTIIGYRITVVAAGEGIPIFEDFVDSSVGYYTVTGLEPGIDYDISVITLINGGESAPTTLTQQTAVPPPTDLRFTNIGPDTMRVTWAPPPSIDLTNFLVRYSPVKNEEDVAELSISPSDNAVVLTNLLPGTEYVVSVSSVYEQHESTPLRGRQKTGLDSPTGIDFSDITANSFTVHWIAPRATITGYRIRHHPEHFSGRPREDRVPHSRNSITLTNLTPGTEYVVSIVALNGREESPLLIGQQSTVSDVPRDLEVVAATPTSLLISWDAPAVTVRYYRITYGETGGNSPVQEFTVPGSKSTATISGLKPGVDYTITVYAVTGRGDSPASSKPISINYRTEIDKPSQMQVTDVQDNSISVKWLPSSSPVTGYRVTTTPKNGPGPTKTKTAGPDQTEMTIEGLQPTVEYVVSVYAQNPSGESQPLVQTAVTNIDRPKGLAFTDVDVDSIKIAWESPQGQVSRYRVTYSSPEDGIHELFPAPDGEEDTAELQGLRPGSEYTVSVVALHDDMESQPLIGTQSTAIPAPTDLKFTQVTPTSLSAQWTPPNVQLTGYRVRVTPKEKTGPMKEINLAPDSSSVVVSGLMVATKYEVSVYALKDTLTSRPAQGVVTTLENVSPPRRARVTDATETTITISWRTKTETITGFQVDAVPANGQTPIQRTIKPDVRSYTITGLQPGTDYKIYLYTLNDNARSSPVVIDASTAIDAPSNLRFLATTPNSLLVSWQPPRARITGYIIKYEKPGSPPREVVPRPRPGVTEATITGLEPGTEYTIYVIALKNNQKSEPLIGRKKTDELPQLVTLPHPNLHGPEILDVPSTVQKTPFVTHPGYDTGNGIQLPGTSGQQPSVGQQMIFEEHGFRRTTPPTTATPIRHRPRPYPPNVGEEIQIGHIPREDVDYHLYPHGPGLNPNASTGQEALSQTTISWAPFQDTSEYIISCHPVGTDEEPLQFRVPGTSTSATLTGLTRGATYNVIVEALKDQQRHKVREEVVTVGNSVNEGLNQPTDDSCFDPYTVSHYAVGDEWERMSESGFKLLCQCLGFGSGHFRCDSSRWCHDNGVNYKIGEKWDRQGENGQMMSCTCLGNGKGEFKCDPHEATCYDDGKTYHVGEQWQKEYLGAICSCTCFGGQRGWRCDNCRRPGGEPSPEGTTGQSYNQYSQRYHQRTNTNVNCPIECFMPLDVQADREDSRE

Recombinant full-length wild type His-HSP90α, P07900 F352A; Y528A
response (Absorbance (450 nm)) (Full-length fibronectin; [2]): 0.53 | response (Absorbance (450 nm)) (Full-length fibronectin; [HSP90α] about 0.31 µM (read from x axis), parent: est. 1.0): 0.36 | response (Absorbance (450 nm)) (Full-length fibronectin; [HSP90α] about 0.63 µM (read from x axis), parent: est. 1.25): 0.45 | response (Absorbance (450 nm)) (Full-length fibronectin; [HSP90α] about 1.25 µM (read from x axis), parent: est. 1.2): 0.44

Recombinant full-length wild type His-HSP90α (from UniProt P07900) F352A; Y528A
response (Absorbance (450 nm)) [1, 2]: 1.1 | response (Absorbance (450 nm)) [1, 3]: 0.72 | response (Absorbance (450 nm)) [1, 4]: 0.83 | response (Absorbance (450 nm)) [1, 5]: 0.99

Recombinant full-length wild type His-HSP90α (from UniProt P07900) Y528A
response (Absorbance (450 nm)) [1, 2]: 1.1 | response (Absorbance (450 nm)) [1, 3]: 0.82 | response (Absorbance (450 nm)) [1, 4]: 0.93 | response (Absorbance (450 nm)) [1, 5]: 1.1
